Results from US20220251219A1 (published 2022).
Changes are numbered by the printed parent chain.

B1: anti-Sortilin antibody S-40 (antibody, V domains shown)
VH: not shown
VL: EIVMTQSPATLSLSPGERATLSCRASQSVSSYLAWYQQKPGQAPRLLIYDASNRATGIPARFSGSGSGTDFTLTISSLEPEDFAVYYCQQRSALPFTFGGGTKVEIK
notes: IgG
B2: anti-Sortilin antibody S-48 (antibody, V domains shown)
VH: QVQLVESGGGVVQPGRSLRLSCAASGFTFSSYGMHWVRQAPGKGLEWVAVISYDGSNKYYADSVKGRFTISRDNSKNTLYLQMNSLRAEDTAVYYCARESGDRATLVYYYYYGMDVWGQGTTVTVSS
VL: EIVMTQSPATLSVSPGERATLSCRASQSVSSNLAWYQQKPGQAPRLLIYSASTRATGIPARFSGSGSGTEFTLTISSLQSEDFAVYYCQQYNSWPITFGGGTKVEIK
notes: IgG
B3: anti-Sortilin antibody S-51 (antibody, V domains shown)
VH: QVQLVESGGGVVQPGRSLRLSCAASGFTFSSYGMHWVRQAPGKGLEWVAVISYDGSNKYYADSVKGRFTISRDNSKNTLYLQMNSLRAEDTAVYYCAKGLEYYDSSRLYYPYYYYMDVWGKGTTVTVSS
VL: B1 VL with M4L, N53K, A93N, L94Y, F96I
notes: IgG
B4: anti-Sortilin antibody S-55 (antibody, V domains shown)
VH: QVQLQESGPGLVKPSETLSLTCAVSGYSISSGYYWGWIRQPPGKGLEWIGSIYHSGSTYYNPSLKSRVTISVDTSKNQFSLKLSSVTAADTAVYYCARGRPELGWDKYFQHWGQGTLVTVSS
VL: DIQMTQSPSSVSASVGDRVTITCRASQGISRWLAWYQQKPGKAPKLLIYAASSLQSGVPSRFSGSGSGTDFTLTISSLQPEDFATYYCQQANALPTFGGGTKVEIK
notes: IgG
B5: anti-Sortilin antibody S-58 (antibody, V domains shown)
VH: QVQLQESGPGLVKPSETLSLTCAVSGYSISSGYYWGWIRQPPGKGLEWIGSIYHSGNTYYNPSLKSRVTISVDTSKNQFSLKLSSVTAADTAVYYCARGPPELGKMYFQHWGQGTLVTVSS
VL: B2 VL with M4L, S50G, Y91D, N92R, S93K, W94G, I96L
notes: IgG
B6: anti-Sortilin antibody S-61 (antibody, V domains shown)
VH: QVQLQESGPGLVKPSETLSLTCAVSGYSISSGYYWGWIRQPPGKGLEWIGSIYHSGSTYYNPSLKSRVTISVDTSKNQFSLKLSSVTAADTAVYYCARGSPRFYYGSGSYLDLFDIWGQGTMVTVSS
VL: B2 VL with S50G, Q90E, N92L, S93N, W94Y
notes: IgG
B7: anti-Sortilin antibody S-65 (antibody, V domains shown)
VH: QVQLQESGPGLVKPSETLSLTCAVSGYSISSGYYWGWIRQPPGKGLEWIGSIYHSGSTYYNPSLKSRVTISVDTSKNQFSLKLSSVTAADTAVYYCAREGQLPTGTFDYWGQGTLVTVSS
VL: not shown
notes: IgG
B8: anti-Sortilin antibody S-2 (antibody, V domains shown)
VH: not shown
VL: DIQMTQSPSSLSASVGDRVTITCRASQSISSYLNWYQQKPGKAPKLLIYAASSLQSGVPSRFSGSGSGTDFTLTISSLQPEDFATYYCQQSDVSPITFGGGTKVEIK
notes: IgG
B9: anti-Sortilin antibody S-4 (antibody, V domains shown)
VH: not shown
VL: B2 VL with S50G, Y91F, N92R, S93V, W94L, I96P
notes: IgG
B10: anti-Sortilin antibody S-6 (antibody, V domains shown)
VH: not shown
VL: B2 VL with S50G, Y91V, N92A, S93N, W94Y, I96R
notes: IgG
B11: anti-Sortilin antibody S-9 (antibody, V domains shown)
VH: QVQLVQSGAEVKKPGASVKVSCKASGYTFTSYGISWVRQAPGQGLEWMGWISAYNGNTNYAQKLQGRVTMTTDTSTSTAYMELRSLRSDDTAVYYCARDPGGYGPTLYYYYGMDVWGQGTTVTVSS
VL: B2 VL with S50G, S93I, W94Y, I96L
notes: IgG
B12: anti-Sortilin antibody S-10 (antibody, V domains shown)
VH: B11 VH
VL: EIVMTQSPATLSVSPGERATLSCRASQSVSSNLAWYQQKPGQAPRLLIYGASTRATGIPARFSGSGSGTEFTLTISSLQSEDFAVYYCQQYADWPPITFGGGTKVEIK
notes: IgG
B13: anti-Sortilin antibody S-12 (antibody, V domains shown)
VH: QVQLVQSGAEVKKPGASVKVSCKASGYTFTSYGISWVRQAPGQGLEWMGWISAYNGNTNYAQKLQGRVTMTTDTSTSTAYMELRSLRSDDTAVYYCARDLPKYKWGWFDPWGQGTLVTVSS
VL: not shown
notes: IgG
B14: anti-Sortilin antibody S-14 (antibody, V domains shown)
VH: QVQLVQSGAEVKKPGASVKVSCKASGYTFTSYYMSWVRQAPGQGLEWMGIINPSGGSTSYAQKFQGRVTMTRDTSTSTVYMELSSLRSEDTAVYYCARDPSGIAAAGPASRYYYGMDVWGQGTTVTVSS
VL: B8 VL with A50G, S91H, D92Y, S94G, I96F
notes: IgG
B15: anti-Sortilin antibody S-15 (antibody, V domains shown)
VH: B14 VH
VL: B2 VL with S50G, Y91A, N92R, S93L, W94G, I96W
notes: IgG
B16: anti-Sortilin antibody S-64 (antibody, V domains shown)
VH: B7 VH with E99A, G100E, Q101H, L102R, P103G, T104P, G105R, T106Y, Y109L, Q112R
VL: B8 VL with S30N, S91L, V93S, S94T
notes: IgG
B17: anti-Sortilin antibody S-16 (antibody, V domains shown)
VH: QVQLVQSGAEVKKPGSSVKVSCKASGGTFSSYAISWVRQAPGQGLEWMGGIIPIFGTANYAQKFQGRVTITADESTSTAYMELSSLRSEDTAVYYCARSPYSGTRDFDLWGRGTLVTVSS
VL: B8 VL with L11V, S28G, Y32W, N34A, S53N, S91G, D92N, V93S, S94Y
notes: IgG
B18: anti-Sortilin antibody S-60 (antibody, V domains shown)
VH: QVQLQESGPGLVKPSETLSLTCAVSGYSISSGYYWGWIRQPPGKGLEWIGTIYHSGSTYYNPSLKSRVTISVDTSKNQFSLKLSSVTAADTAVYYCARQGSIKQGYYGMDVWGQGTTVTVSS
VL: not shown
B19: anti-Sortilin antibody S-83 (antibody, V domains shown)
VH: QLQLQESGPGLVKPSETLSLTCTVSGGSISSSSYYWGWIRQPPGKGLEWIGSIYYSGSTYYNPSLKSRVTISVDTSKNQFSLKLSSVTAADTAVYYCARGSPTWLRDYYMDVWGKGTTVTVSS
VL: B2 VL with M4L, S50G, S93A, W94F, I96P
B20: anti-Sortilin antibody S-64 (antibody, V domains shown)
VH: B7 VH with E99A, G100E, Q101H, L102R, P103G, T104P, G105R, T106Y, Y109L, Q112R
VL: B8 VL with S30N, S91L, V93S, S94T
B21: anti-Sortilin antibody S-65 (antibody, V domains shown)
VH: B7 VH
VL: not shown
B22: anti-Sortilin antibody S-69 (antibody, V domains shown)
VH: QVQLQESGPGLVKPSQTLSLTCTVSGGSISSGGYYWSWIRQHPGKGLEWIGYIYYSGSTYYNPSLKSRVTISVDTSKNQFSLKLSSVTAADTAVYYCARDRGGTHFGADHYYYGMDVWGQGTMVTVSS
VL: B2 VL with N32S, S50G, Y91A, N92A, S93D
B23: anti-Sortilin antibody S-74 (antibody, V domains shown)
VH: QVQLQESGPGLVKPSQTLSLTCTVSGGSISSGTYYWSWIRQHPGKGLEWIGYIYYSGSTYYNPSLKSRVTISVDTSKNQFSLKLSSVTAADTAVYYCARGVGRYRVADYWGQGTLVTVSS
VL: EIVMTQSPATLSLSPGERATLSCRASQSVSSYLAWYQQKPGQAPRLLIYDSSNRATGIPARFSGSGSGTDFTLTISSLEPEDFAVYYCQQETNMPPITFGGGTKVEIK
B24: anti-Sortilin antibody S-76 (antibody, V domains shown)
VH: QVQLQESGPGLVKPSQTLSLTCTVSGGSISSGGYYWSWIRQHPGKGLEWIGSIYYSGSTYYNPSLKSRVTISVDTSKNQFSLKLSSVTAADTAVYYCARGVGIQQQLVLGFDPWGQGTLVTVSS
VL: B8 VL with Y32F, Y49S, D92Y, V93R, S94E
B25: anti-Sortilin antibody S-12 (antibody, V domains shown)
VH: B13 VH
VL: not shown

Each binder was assayed against T1, recombinant mouse Sortilin (mouse, UniProt Q6PHU5 74-825) (assay: flow cytometry, 293 cells expressing recombinant mouse Sortilin, 10 ug/ml antibody).
T1 construct: also called mSort
Protocol: (§1) Cells were harvested, plated at 10⁵/ml in a 96 well plate, washed, and incubated in 100 μl PBS containing 10 μg/ml Mab and 2% FBS for 1 hour in ice. Cells were then washed twice and incubated in 100 μl PBS+2% FBS containing 5 μg/ml PE-conjugated anti-human secondary antibody for 30 minutes in ice. Cells were washed twice in cold PBS and data was acquired on a BD FACS Canto. Data analysis and calculation of MFI values was performed with FlowJo (TreeStar) software version 10.0.7.

**Q.** With B1 as the binder, how does the MFI read?
**A.** Its MFI is 2630 MFI.

**Q.** How did the MFI turn out when B2 was run?
**A.** Its MFI is 11900 MFI.

**Q.** B3 was tested. Which MFI did it give?
**A.** Its MFI is 21900 MFI.

**Q.** For B4, which MFI is on record?
**A.** The MFI was 21400 MFI.

**Q.** B5 was tested. Which MFI did it give?
**A.** Its MFI is 15100 MFI.

**Q.** Which MFI does the source give for B6 here?
**A.** The MFI was 21800 MFI.

**Q.** For B7, which MFI is on record?
**A.** The MFI was 17900 MFI.

**Q.** With B8 as the binder, how does the MFI read?
**A.** The MFI was 22400 MFI.

**Q.** Which MFI does the source give for B9 here?
**A.** Its MFI is 15700 MFI.

**Q.** With B10 as the binder, how does the MFI read?
**A.** The MFI was 25600 MFI.

**Q.** How did the MFI turn out when B11 was run?
**A.** Its MFI is 22200 MFI.

**Q.** B12 was tested. Which MFI did it give?
**A.** Its MFI is 19400 MFI.

**Q.** B13 was tested. Which MFI did it give?
**A.** Its MFI is 18800 MFI.

**Q.** How did the MFI turn out when B14 was run?
**A.** The MFI was 16500 MFI.

**Q.** B15 was tested. Which MFI did it give?
**A.** The MFI was 17600 MFI.

What follows are binders tested against T2, recombinant human Sortilin (human, UniProt Q99523 78-830) (assay: flow cytometry, 293 cells expressing recombinant human Sortilin, 10 ug/ml antibody).
T2 construct: also called hSort; SORT1
Protocol: as §1

**Q.** How did the MFI turn out when B1 was run?
**A.** The MFI was 7410 MFI.

**Q.** How did the MFI turn out when B2 was run?
**A.** Its MFI is 8140 MFI.

**Q.** Which MFI does the source give for B3 here?
**A.** The MFI was 12200 MFI.

**Q.** How did the MFI turn out when B4 was run?
**A.** The MFI was 9480 MFI.

**Q.** Which MFI does the source give for B5 here?
**A.** The MFI was 7770 MFI.

**Q.** With B6 as the binder, how does the MFI read?
**A.** The MFI was 7480 MFI.

**Q.** Which MFI does the source give for B16 here?
**A.** The MFI was 7930 MFI.

**Q.** With B7 as the binder, how does the MFI read?
**A.** Its MFI is 8070 MFI.

**Q.** For B8, which MFI is on record?
**A.** Its MFI is 8430 MFI.

**Q.** With B9 as the binder, how does the MFI read?
**A.** The MFI was 9120 MFI.

**Q.** How did the MFI turn out when B10 was run?
**A.** The MFI was 11100 MFI.

**Q.** For B11, which MFI is on record?
**A.** Its MFI is 10300 MFI.

**Q.** Which MFI does the source give for B12 here?
**A.** The MFI was 8660 MFI.

**Q.** For B13, which MFI is on record?
**A.** Its MFI is 9760 MFI.

**Q.** Which MFI does the source give for B14 here?
**A.** Its MFI is 8010 MFI.

**Q.** B15 was tested. Which MFI did it give?
**A.** Its MFI is 8740 MFI.

**Q.** Which MFI does the source give for B17 here?
**A.** Its MFI is 6280 MFI.

These binders were tested against human Sortilin (human, UniProt Q99523 78-830) (assay: cell-based or functional assay).

**Q.** With B18 as the binder, how does the “Fold increase in Progranulin levels in U251 cells” value read?
**A.** Its value is 2.24 fold.

**Q.** And the “Percent reduction of Sortilin levels in U251 cells” value (from here on “Percent reduction”)?
**A.** Its value is 59.5%.

**Q.** How did the “Percent reduction” value turn out when B19 was run?
**A.** Its value is 48.1%.

**Q.** Which “Percent reduction” value does the source give for B20 here?
**A.** Its value is 37.4%.

**Q.** B21 was tested. Which “Percent reduction” value did it give?
**A.** The value was 37.3%.

**Q.** For B22, which “Percent reduction” value is on record?
**A.** The value was 23%.

**Q.** B23 was tested. Which “Percent reduction” value did it give?
**A.** Its value is 22.1%.

**Q.** For B24, which “Percent reduction” value is on record?
**A.** Its value is 20.3%.

**Q.** For B25, which “Percent reduction” value is on record?
**A.** The value was 12%.
